The results in this text go back to EP4676971A2 (dated 2026).

“And” between values parts separate entries of the source, which are not always exact repeats. Equal entries are not always repeated.

B2: recombinant human TL1A protein (ligand, UniProt O95150 72-251, looked up)
chain: LKGQEFAPSHQQVYAPLRADGDKPRAHLTVVRQTPTQHFKNQFPALHWEHELGLAFTKNRMNYTNKFLLIPESGDYFIYSQVTFRGMTSECSEIRQAGRPNKPDSITVVITKVTDSYPEPTQLLMGTKSVCEVGSNWFQPIYLGAMFSLQEGDKLMVNVSDISLVDYTKEDKTFFGAFLL
notes: also called tumor necrosis factor-like cytokine 1A; TNFSF15

One assay addresses TNFSF10 (TRAIL) (UniProt P50591 114-281, limits assumed). Briefly: ELISA. A general note: In an ELISA, binding on a coated surface is turned into a signal by an enzyme label.
For the next assay, the target named is TNFSF14 (LIGHT) (UniProt O43557 74-240, limits assumed). Briefly: ELISA.
Sequence of TNFSF14 (LIGHT) (O43557 74-240 limits assumed): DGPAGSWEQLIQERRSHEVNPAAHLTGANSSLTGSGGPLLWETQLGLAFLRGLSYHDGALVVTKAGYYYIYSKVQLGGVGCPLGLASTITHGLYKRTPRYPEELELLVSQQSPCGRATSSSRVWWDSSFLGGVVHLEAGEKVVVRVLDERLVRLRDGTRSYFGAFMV
A further assay deals with T1, TNFSF6 (FasL) (UniProt P48023 134-281, limits assumed).
T1 sequence (looked up): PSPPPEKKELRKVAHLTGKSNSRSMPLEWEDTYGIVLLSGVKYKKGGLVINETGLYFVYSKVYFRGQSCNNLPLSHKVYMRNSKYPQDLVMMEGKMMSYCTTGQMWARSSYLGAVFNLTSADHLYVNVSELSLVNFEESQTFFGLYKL
The assay is described as follows: ELISA.

The target of assay [1] is T2, cynomolgus monkey TL1A produced by PBMCs in stimulated whole blood (cynomolgus monkey, UniProt G7PRK8 72-251).
T2 sequence: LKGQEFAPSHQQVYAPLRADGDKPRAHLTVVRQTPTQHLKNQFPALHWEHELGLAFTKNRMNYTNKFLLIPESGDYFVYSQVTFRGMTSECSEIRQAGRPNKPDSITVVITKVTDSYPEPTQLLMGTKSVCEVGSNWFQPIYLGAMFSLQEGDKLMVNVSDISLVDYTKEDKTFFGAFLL
Briefly: cell-based or functional assay.

Assay [2] addresses B2. Briefly: cell-based or functional assay.
The target of assay [3] is T3, recombinant cynomolgus monkey TL1A protein (cynomolgus monkey, UniProt G7PRK8 72-251).
T3 sequence: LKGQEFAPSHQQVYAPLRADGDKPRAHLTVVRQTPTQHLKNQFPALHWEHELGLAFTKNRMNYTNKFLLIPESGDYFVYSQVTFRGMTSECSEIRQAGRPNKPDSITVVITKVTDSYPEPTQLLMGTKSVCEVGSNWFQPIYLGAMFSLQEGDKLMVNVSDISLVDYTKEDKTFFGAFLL
The assay is described as follows: cell-based or functional assay.

Assay [4] addresses T4, recombinant mouse TL1A protein (mouse, UniProt Q5UBV8 76-252, limits assumed).
T4 construct: also called murine TL1A
T4 sequence (looked up): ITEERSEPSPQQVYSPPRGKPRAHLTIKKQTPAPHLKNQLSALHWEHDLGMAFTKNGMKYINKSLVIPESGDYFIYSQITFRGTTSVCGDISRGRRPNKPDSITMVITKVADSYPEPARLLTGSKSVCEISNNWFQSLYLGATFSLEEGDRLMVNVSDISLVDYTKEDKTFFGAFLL
The assay is described as follows: ELISA on recombinant TL1A protein.

Assay [5] has as its target T5, recombinant rat TL1A protein (rat, UniProt Q8K3Y7 76-252, limits assumed).
T5 sequence (looked up): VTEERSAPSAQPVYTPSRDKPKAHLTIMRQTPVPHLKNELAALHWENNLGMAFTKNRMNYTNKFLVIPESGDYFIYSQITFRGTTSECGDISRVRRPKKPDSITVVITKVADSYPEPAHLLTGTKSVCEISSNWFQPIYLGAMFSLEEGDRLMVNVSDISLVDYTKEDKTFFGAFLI
The assay is described as follows: ELISA on recombinant TL1A protein.

Assay [6] addresses T3, recombinant cynomolgus monkey TL1A …. Briefly: ELISA, binding to recombinant TL1A protein.
Assay [7] concerns the target B2. Briefly: surface plasmon resonance (SPR), recombinant TL1A protein.
Assay [8] deals with T3, recombinant cynomolgus monkey TL1A …. The description is as above.
Assay [9] concerns the target T6, membrane-bound human TL1A on TNFSF15/HEK293 cells (human, UniProt O95150 1-251).
T6 construct: whole, on cells; also called membrane-associated TL1A
T6 sequence (looked up): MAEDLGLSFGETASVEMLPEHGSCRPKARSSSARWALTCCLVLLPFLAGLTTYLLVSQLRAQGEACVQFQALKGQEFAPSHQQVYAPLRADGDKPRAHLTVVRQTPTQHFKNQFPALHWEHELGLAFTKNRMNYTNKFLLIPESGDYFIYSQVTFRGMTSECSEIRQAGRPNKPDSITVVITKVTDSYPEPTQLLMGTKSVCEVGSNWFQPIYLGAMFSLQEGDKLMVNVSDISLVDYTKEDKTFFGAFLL
Briefly: binding to TNFSF15/HEK293 cells that carry human TL1A, dose-dependent.

For assay [10], the target named is T7, DR3 receptor on human TF-1 cells (human, UniProt Q93038 25-417).
T7 construct: whole, on cells; also called death receptor 3; TNFRSF25
T7 sequence (looked up): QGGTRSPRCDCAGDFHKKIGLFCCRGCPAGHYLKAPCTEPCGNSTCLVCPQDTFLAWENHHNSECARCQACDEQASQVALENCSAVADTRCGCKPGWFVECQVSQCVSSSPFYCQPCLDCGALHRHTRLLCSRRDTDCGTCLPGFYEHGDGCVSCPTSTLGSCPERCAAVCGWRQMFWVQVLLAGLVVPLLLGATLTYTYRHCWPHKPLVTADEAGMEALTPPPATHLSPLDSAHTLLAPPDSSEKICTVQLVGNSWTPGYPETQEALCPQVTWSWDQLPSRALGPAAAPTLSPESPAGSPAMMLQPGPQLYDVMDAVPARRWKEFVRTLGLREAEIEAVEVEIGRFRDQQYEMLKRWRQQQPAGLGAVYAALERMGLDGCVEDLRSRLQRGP
The assay is described as follows: TF-1 cell caspase activation assay.

Sequence of TNFSF10 (TRAIL) (P50591 114-281 limits assumed): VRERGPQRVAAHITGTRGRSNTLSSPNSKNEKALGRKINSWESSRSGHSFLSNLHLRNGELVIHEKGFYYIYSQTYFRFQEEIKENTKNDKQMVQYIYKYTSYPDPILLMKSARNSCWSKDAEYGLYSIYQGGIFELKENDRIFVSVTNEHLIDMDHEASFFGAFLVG

B1: anti-TL1A antibody A219 (antibody, V domains shown)
VH: QVQLVQSGAEVKKPGASVKVSCKASGFDIQDTYMHWVKQRPGQGLEWMGRIDPASGHTKYDPKFQVRVTITRDTSTSTVYLELSSLRSEDTAVYYCARSGGLPDVWGQGTTVTVSS
VL: EIVLTQSPGTLSLSPGERATLSCRASSSVSYMYWYQQKPGQAPRPLIYATSNLASGIPDRFSGSGSGTDFTLTISRLEPEDFAVYYCQQWEGNPRTFGGGTKLEIK
notes: Humanized monoclonal antibody; Molecular weight 143938 Daltons; The constant region is not tied to A219 in the readable text
Turning to B1, the binding result (in the assay with TNFSF10 (TRAIL); with TNFSF14 (LIGHT); with TNFSF6 (FasL); in [4]; in assay [5]) was “no binding” in each case. The “inhibition of the IFN-gamma response in monkey whole blood (mean IC50)” value in assay [1] is 1.54 nM and 289 ng/mL. Further, the “inhibition of TL1A-induced caspase activation in TF-1 cells (IC50)” value in assay [2] amounted to 0.27 nM; in [3], 0.59 nM. Moreover, the half-inhibitory concentration (IC50) in assay [6] came to 0.47 nM. Further, the Kd in assay [7] is 0.06 nM; in [8] it was 0.04 nM. The molecule further registered an EC50 in [9] of 17.4 nM.
Regarding B2, the binding result in assay [10] was “binds”.

The term IC50 denotes the concentration at which inhibition is half-maximal. What is called Kd is the constant that tells how readily two partners part at equilibrium. The term EC50 denotes the concentration at which the effect is half-maximal.
